# Test results taken from patent US20140072613A1, “Compositions and Methods for Treating Cutaneous Scarring” (priority 2012, published 2014).
# Legend:
# Test in all cases: biochemical
# Type in all cases: biochemical
# 266 human kinases [1] = target: 266 human kinases (Homo sapiens, UniProt P49840); settings: GSK3α(h); 100 μM
# Method in brief: (§1)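 Read-out by scintillation counting of radiolabelled, positively charged substrate bound to negatively charged filter; activity normalised to 100% control. Phosphate transferred from radiolabelled ATP.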
# 266 human kinases [2] = target: 266 human kinases (Homo sapiens, UniProt P28482); settings: MAPK2(h); 100 μM
# Chain of 266 human kinases (Homo sapiens, UniProt P28482) (P28482 whole entry): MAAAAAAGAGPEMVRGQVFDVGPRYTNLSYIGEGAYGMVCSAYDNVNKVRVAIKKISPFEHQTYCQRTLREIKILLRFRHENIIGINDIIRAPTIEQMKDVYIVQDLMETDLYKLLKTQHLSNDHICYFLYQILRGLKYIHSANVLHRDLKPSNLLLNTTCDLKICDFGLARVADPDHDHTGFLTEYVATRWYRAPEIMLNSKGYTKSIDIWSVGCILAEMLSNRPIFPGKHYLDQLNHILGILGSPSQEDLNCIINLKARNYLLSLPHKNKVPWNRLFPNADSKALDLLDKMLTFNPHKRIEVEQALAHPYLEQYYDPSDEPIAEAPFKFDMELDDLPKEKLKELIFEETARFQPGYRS
# Method in brief: as §1
# 266 human kinases [3] = target: T1, 266 human kinases (Homo sapiens, UniProt O14920); settings: IKKβ(h); 100 μM
# T1 sequence (O14920 1-756): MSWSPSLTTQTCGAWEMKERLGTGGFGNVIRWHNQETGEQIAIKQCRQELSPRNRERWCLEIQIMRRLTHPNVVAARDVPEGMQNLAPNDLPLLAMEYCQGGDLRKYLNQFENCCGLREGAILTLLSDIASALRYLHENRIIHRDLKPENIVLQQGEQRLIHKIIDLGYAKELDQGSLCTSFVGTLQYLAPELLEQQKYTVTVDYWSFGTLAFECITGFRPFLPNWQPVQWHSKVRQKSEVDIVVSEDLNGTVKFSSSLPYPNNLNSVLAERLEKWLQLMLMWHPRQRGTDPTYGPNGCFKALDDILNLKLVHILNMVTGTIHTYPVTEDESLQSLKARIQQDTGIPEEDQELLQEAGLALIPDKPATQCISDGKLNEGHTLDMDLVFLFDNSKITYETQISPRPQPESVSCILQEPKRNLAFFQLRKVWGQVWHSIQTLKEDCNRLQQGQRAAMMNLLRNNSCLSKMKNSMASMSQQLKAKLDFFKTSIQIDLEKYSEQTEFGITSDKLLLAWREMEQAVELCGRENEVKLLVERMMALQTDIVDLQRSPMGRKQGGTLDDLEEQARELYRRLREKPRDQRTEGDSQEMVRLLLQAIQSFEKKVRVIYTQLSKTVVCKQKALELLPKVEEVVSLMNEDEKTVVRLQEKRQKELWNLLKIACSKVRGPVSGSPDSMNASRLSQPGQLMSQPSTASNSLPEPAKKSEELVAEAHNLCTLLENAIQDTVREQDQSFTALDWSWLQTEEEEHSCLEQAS
# Method in brief: as §1
# 266 human kinases [4] = target: 266 human kinases (Homo sapiens, UniProt O15264); settings: SAPK4(h); 100 μM
# Chain of 266 human kinases (Homo sapiens, UniProt O15264) (O15264 whole entry): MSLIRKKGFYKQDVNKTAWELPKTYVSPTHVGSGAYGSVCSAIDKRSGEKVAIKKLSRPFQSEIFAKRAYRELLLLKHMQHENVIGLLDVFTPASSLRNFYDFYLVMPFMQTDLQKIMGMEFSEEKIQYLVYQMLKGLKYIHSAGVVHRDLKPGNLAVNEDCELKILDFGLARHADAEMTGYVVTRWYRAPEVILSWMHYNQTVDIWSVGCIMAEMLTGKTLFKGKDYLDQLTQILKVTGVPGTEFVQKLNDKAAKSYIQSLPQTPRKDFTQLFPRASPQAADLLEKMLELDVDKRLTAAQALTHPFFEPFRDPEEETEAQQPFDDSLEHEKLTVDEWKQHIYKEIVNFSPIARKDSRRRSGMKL
# Method in brief: as §1
# 266 human kinases [5] = target: 266 human kinases (Homo sapiens, UniProt Q9Y243); settings: PKBγ(h); 100 μM
# Chain of 266 human kinases (Homo sapiens, UniProt Q9Y243) (Q9Y243 whole entry): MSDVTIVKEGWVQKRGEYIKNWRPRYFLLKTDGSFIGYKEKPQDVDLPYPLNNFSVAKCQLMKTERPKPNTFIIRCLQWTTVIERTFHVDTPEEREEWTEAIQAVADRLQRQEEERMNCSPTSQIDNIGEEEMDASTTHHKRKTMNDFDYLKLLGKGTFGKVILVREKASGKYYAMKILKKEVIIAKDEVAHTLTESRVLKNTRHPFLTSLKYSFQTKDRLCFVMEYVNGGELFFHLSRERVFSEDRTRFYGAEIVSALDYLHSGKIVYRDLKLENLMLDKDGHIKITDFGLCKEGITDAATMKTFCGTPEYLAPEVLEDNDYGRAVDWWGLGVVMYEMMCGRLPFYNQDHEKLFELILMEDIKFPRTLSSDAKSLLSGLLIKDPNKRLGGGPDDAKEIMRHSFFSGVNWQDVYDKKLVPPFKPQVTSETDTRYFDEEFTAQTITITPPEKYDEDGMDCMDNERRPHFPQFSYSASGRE
# Method in brief: as §1
# 266 human kinases [6] = target: T2, 266 human kinases (Homo sapiens, UniProt P29320); settings: EphA3(h); 100 μM
# T2 sequence (P29320 21-983): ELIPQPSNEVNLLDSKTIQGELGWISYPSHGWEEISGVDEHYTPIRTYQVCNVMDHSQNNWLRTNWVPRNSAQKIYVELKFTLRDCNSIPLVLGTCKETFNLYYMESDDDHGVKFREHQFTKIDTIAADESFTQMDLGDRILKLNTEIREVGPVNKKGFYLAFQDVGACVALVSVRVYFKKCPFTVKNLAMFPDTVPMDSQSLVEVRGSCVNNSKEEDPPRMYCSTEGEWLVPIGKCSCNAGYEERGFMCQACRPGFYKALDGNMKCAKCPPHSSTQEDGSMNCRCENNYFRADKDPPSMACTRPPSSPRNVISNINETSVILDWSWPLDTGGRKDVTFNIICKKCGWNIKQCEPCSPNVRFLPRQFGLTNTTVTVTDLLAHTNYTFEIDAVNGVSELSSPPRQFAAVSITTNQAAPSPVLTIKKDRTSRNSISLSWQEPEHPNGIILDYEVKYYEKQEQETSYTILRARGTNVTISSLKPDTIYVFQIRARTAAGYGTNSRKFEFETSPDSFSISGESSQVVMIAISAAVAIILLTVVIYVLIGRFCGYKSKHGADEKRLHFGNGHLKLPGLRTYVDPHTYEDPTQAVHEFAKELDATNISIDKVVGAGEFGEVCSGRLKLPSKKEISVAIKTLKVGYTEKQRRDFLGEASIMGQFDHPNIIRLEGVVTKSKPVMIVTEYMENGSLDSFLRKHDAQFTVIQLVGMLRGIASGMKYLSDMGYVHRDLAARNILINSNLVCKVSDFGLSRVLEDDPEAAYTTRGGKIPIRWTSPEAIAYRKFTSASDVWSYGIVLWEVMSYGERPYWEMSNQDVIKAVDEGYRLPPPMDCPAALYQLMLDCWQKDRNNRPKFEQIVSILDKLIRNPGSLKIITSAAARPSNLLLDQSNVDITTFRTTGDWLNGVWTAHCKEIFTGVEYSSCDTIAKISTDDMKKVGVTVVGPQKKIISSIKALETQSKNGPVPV
# Method in brief: as §1
# 266 human kinases [7] = target: 266 human kinases (Homo sapiens, UniProt P16234, D842V); settings: PDGFRα(D842V)(h); 100 μM
# Chain of 266 human kinases (Homo sapiens, UniProt P16234, D842V) (P16234 24-1089 D842V): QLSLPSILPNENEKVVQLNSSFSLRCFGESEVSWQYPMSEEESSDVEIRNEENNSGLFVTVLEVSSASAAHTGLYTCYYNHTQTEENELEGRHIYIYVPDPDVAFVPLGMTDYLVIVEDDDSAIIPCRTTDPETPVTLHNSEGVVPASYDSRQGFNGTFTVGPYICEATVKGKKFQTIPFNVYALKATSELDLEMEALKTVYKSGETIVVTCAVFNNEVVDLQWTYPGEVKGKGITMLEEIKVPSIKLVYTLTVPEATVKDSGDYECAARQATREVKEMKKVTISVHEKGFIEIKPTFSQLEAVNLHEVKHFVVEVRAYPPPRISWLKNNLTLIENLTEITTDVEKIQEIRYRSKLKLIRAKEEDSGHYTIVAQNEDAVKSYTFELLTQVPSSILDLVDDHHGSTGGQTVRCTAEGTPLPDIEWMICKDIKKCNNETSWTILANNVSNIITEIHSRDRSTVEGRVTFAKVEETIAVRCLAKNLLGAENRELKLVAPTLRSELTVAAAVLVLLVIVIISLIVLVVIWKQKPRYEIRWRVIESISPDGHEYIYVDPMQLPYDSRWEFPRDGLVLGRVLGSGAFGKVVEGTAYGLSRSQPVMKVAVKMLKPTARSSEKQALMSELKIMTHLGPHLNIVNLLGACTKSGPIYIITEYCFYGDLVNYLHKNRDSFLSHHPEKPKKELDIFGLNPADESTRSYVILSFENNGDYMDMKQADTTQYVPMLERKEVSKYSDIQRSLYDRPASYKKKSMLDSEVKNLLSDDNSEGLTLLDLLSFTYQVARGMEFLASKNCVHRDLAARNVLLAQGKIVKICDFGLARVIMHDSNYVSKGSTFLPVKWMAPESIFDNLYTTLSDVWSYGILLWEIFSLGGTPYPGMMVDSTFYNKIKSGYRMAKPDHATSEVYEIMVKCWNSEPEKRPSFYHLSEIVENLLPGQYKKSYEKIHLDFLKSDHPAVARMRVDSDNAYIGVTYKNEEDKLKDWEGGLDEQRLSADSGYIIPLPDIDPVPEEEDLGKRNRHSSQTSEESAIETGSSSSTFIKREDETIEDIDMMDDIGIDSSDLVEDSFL
# Method in brief: as §1
# 266 human kinases [8] = target: 266 human kinases (Homo sapiens, UniProt O14965); settings: Aurora-A(h); 100 μM
# Chain of 266 human kinases (Homo sapiens, UniProt O14965) (O14965 whole entry): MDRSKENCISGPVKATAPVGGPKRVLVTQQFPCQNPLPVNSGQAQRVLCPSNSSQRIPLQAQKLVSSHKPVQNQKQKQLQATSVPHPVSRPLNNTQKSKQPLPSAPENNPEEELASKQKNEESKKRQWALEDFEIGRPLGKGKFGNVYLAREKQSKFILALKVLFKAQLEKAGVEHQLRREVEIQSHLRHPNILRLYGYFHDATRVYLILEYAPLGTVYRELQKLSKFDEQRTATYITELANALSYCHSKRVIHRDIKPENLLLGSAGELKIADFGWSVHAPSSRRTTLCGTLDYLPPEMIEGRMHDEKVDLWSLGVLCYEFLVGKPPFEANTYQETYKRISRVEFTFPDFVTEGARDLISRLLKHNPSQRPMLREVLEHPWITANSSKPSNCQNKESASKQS
# Method in brief: as §1
# 266 human kinases [9] = target: 266 human kinases (Homo sapiens, UniProt Q06187, R28H); settings: BTK(R28H)(h); 100 μM
# Chain of 266 human kinases (Homo sapiens, UniProt Q06187, R28H) (Q06187 whole entry R28H): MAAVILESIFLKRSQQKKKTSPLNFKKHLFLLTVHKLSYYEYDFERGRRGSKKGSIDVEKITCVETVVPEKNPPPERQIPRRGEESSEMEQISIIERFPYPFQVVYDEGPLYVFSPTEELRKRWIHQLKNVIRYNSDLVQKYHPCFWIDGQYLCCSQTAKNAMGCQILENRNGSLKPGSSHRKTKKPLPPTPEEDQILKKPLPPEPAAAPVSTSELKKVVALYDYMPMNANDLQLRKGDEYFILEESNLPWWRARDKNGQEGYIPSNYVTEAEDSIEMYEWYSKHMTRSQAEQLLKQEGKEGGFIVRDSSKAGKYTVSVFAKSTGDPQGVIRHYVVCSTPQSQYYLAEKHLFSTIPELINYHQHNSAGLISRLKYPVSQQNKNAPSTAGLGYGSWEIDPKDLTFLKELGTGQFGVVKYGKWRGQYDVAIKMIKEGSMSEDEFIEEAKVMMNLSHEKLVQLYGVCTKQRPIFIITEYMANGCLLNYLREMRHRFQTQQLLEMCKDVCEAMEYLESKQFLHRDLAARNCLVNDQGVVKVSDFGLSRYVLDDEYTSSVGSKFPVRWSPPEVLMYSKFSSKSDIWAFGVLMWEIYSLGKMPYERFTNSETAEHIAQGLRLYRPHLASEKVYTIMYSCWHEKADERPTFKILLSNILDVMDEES
# Method in brief: as §1
# 266 human kinases [10] = target: 266 human kinases (Homo sapiens, UniProt Q9HCP0); settings: CK1γ1(h); 100 μM
# Chain of 266 human kinases (Homo sapiens, UniProt Q9HCP0) (Q9HCP0 whole entry): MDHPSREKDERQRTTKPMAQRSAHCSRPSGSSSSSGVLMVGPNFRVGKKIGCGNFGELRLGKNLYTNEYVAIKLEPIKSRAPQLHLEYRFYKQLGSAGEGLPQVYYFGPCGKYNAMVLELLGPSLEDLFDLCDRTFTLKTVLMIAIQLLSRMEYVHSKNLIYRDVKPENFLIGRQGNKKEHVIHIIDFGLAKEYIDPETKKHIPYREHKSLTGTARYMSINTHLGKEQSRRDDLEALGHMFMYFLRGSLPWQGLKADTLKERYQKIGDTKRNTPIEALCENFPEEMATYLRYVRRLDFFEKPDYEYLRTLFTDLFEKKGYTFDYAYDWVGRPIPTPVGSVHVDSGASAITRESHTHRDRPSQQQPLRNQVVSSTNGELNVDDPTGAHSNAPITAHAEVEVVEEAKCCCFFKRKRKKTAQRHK
# Method in brief: as §1
# 266 human kinases [11] = target: 266 human kinases (Homo sapiens, UniProt O43318); settings: TAK1(h); 100 μM
# Chain of 266 human kinases (Homo sapiens, UniProt O43318) (O43318 whole entry): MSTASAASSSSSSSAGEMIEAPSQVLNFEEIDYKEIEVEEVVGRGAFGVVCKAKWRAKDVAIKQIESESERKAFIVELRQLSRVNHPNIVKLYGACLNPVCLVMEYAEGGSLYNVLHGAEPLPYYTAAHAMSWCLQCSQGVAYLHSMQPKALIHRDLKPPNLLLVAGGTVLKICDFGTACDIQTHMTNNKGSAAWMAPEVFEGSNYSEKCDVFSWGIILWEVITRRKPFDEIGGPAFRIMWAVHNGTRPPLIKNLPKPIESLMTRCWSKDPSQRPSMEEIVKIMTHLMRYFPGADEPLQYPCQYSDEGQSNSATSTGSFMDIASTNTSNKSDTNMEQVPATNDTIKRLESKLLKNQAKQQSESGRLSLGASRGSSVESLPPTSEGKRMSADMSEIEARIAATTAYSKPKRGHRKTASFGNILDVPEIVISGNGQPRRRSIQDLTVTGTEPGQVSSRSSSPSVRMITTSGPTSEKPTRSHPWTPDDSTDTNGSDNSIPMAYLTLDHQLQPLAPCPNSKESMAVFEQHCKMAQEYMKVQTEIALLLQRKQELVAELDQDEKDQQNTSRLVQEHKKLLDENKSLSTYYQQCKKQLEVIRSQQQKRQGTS
# Method in brief: as §1
# Chain of 266 human kinases (Homo sapiens, UniProt P49840) (P49840 whole entry): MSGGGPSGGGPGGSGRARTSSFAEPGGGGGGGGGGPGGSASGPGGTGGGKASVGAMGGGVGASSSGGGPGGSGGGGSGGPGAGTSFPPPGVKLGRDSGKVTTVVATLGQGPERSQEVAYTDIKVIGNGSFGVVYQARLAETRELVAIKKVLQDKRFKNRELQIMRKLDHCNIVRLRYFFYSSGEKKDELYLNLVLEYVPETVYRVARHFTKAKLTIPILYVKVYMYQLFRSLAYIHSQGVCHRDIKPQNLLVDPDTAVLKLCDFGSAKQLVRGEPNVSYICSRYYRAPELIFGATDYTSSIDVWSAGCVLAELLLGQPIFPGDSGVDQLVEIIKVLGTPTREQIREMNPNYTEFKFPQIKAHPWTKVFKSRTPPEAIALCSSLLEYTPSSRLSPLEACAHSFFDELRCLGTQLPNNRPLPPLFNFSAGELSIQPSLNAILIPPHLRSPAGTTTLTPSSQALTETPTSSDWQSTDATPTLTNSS
Sequence,% activity (266 human kinases [1]) [%],% activity (266 human kinases [2]) [%],% activity (266 human kinases [3]) [%],% activity (266 human kinases [4]) [%],% activity (266 human kinases [5]) [%],% activity (266 human kinases [6]) [%],% activity (266 human kinases [7]) [%],% activity (266 human kinases [8]) [%],% activity (266 human kinases [9]) [%],% activity (266 human kinases [10]) [%],% activity (266 human kinases [11]) [%]
HRRIKAWLKKIKALARQLGVAA (mammal) [MMI-0500],175,60,71,48,20,33,170,110,10,–,–
YARAAARQARAKALNRQLGVA (mammal) [MMI-0200],–,–,–,–,–,–,–,–,–,98,124
